Assay results: US20230235080A1, “TROPHOBLAST CELL-SURFACE ANTIGEN-2 (TROP-2) ANTIBODIES” (Bionecure Therapeutics, Inc., priority 2020, published 2023)
Where two headings read alike, the source gives them in different places.

T1: human EPCAM-His (human, UniProt P16422 24-265)
T1 construct: also called hEPCAM
T1 sequence (looked up): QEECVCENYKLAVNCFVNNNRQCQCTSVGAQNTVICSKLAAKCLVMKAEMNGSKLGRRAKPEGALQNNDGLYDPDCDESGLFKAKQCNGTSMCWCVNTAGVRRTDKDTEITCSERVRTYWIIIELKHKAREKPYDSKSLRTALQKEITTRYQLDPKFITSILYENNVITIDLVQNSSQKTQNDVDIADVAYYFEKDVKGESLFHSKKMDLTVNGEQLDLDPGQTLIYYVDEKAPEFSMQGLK

T2: mouse Trop-2-His (mouse, UniProt Q8BGV3 25-270)
T2 sequence (looked up): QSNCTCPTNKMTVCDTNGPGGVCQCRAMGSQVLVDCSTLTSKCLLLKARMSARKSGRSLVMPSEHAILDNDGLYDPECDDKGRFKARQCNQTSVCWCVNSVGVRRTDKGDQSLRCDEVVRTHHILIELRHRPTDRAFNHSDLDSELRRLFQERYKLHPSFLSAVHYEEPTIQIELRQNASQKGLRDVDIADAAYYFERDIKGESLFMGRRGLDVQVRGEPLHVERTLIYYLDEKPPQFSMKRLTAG

T3: human Trop-2 on Trop-2 positive cancer cells (human, UniProt P09758 27-323)
T3 sequence (looked up): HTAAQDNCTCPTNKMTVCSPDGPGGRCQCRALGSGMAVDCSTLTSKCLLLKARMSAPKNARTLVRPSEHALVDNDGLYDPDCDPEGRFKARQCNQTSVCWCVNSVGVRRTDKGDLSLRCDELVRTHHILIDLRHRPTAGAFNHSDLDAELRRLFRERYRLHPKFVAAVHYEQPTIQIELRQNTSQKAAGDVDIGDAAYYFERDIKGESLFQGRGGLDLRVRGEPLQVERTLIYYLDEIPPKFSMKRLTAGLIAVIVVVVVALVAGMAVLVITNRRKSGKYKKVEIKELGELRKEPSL

T4: human Trop-2-ECD-6His fusion protein (human, UniProt P09758 27-274)
T4 construct: Expressed in a human 293 cell line; also called huTrop-2; human Trop-2 antigen
T4 sequence: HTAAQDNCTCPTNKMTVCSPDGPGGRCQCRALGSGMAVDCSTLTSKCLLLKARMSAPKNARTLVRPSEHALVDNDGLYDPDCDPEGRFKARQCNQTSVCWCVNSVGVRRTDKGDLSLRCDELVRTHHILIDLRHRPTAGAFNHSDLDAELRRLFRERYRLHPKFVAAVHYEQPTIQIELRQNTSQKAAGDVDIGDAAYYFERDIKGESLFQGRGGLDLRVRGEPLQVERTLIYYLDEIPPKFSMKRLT


Assays:
human EPCAM-His = molecular target: T1, human EPCAM-His; experiment: ELISA on coated antigen, one antibody dilution (concentration not given), detected by GAH-HRP; y axis without a label (OD450 by the text)
mouse Trop-2-His = molecular target: T2, mouse Trop-2-His; experiment: as above
[1] = molecular target: T3, human Trop-2 on Trop-2 positive cancer …; experiment: cell-based or functional assay
[2] = molecular target: T3, human Trop-2 on Trop-2 positive cancer …; experiment: cell-based or functional assay; remark: listed apart in the source
[3] = molecular target: T4, human Trop-2-ECD-6His fusion protein; experiment: antigen binding ELISA on immobilized human Trop-2-ECD-6His
[4] = molecular target: T4, human Trop-2-ECD-6His fusion protein; experiment: as above; remark: listed apart in the source
[5] = molecular target: T4, human Trop-2-ECD-6His fusion protein; experiment: as above; remark: listed apart in the source
[6] = molecular target: T3, human Trop-2 on Trop-2 positive cancer …; experiment: cell-based or functional assay; remark: listed apart in the source

Binder | binding result (human EPCAM-His) | binding result (mouse Trop-2-His) | Internalization rate (flow cytometry, MDA-MB-468 cells) [1] [%] | Internalization rate (flow cytometry, MDA-MB-468 cells) [2] [%] | EC50 [3] [nM] | EC50 [4] [nM] | EC50 [5] [nM] | Internalization rate (flow cytometry, MDA-MB-468 cells) [6] [%]
humanized IgG #118-2-5 HuA/LuX (antibody, V domains shown, Full-length IgG expressed in HEK293-6E cells; also called 1 (HuA/LuX); IgG HuA/LuX) VH: QVQLQESGPGLVKPSETLSLTCTVSGFSLTSYGVNWIRQPPGKGLEWIGVMWAGGSTNYNSALMSRVTISVDTSKNQFSLKLSSVTAADTAVYYCARDENWDGAWFAYWGQGTLVTVSS VL: DIVMTQSPDSLAVSLGERATINCKSSQSLLNSGTRKNYLAWYQQKPGQPPKLLIYWASSRESGVPDRFSGSGSGTDFTLTISSLQAEDVAVYYCKQSYNLFTFGGGTKVEIK | no binding | no binding | 70.9 | 96.8 | 0.142 | 0.39 | – | –
humanized IgG #118-2-5 HuC/LuX (antibody, V domains shown, Full-length IgG expressed in HEK293-6E cells; also called 3 (HuC/LuX)) VH: QVQLQESGPGLVKPSETLSLTCTVSGFSLTSYGVNWIRQPPGKGLEWIGVMWAGGSTNYNSALMSRLSISKDNSKSQVFLKMNSLQTDDTGMYYCARDENWDGAWFAYWGQGTLVTVSS VL: DIVMTQSPDSLAVSLGERATINCKSSQSLLNSGTRKNYLAWYQQKPGQPPKLLIYWASSRESGVPDRFSGSGSGTDFTLTISSLQAEDVAVYYCKQSYNLFTFGGGTKVEIK | no binding | no binding | 0.9 | – | 0.034 | – | – | –
humanized IgG #118-2-5 HuC/LuY (antibody, V domains shown, Full-length IgG expressed in HEK293-6E cells; also called 7 (HuC/LuY)) VH: QVQLQESGPGLVKPSETLSLTCTVSGFSLTSYGVNWIRQPPGKGLEWIGVMWAGGSTNYNSALMSRLSISKDNSKSQVFLKMNSLQTDDTGMYYCARDENWDGAWFAYWGQGTLVTVSS VL: DIVMTQSPSSLAVSLGERATMSCKSSQSLLNSGTRKNYLAWYQQKPGQPPKLLISWASSRESGVPDRFSGSGSGTDFTLTISSVQAEDLAVYYCKQSYNLFTFGGGTKVEIK | no binding | no binding | 3 | – | 0.014 | – | – | –
humanized IgG #118-2-5 HuD/LuY (antibody, V domains shown, Full-length IgG expressed in HEK293-6E cells; also called 8 (HuD/LuY)) VH: QVQLKESGPGLVAPSETLSITCTVSGFSLTSYGVNWIRQPPGKGLEWLGVMWAGGSTNYNSALMSRLTISKDTSKNQVSLKLSSVQAADTAMYYCARDENWDGAWFAYWGQGTLVTVSS VL: DIVMTQSPSSLAVSLGERATMSCKSSQSLLNSGTRKNYLAWYQQKPGQPPKLLISWASSRESGVPDRFSGSGSGTDFTLTISSVQAEDLAVYYCKQSYNLFTFGGGTKVEIK | no binding | no binding | 13.2 | 57.3 | 0.005 | 0.06 | – | –
humanized #125-1-5 Hu1/Lu6 (antibody, V domains shown, Humanized antibody) VH: QVQLVQSGAEVKKPGASVKVSCKASGYTFTTYVIHWVRQAPGQRLEWMGYINPNNDGTKYNEKFKGRVTITRDTSASTAYMELSSLRSEDTAVYYCARPHFETHAMDYWGQGTLVTVSS VL: DIQMTQSPSSLSASVGDRVTITCKASEDIFNRLAWYQQKPGKAPKLLISGATSLETGVPSRFSGSGSGKDYTLTISSLQPEDFATYYCQQYWNTWTFGQGTKVEIK | – | – | – | – | – | – | 0.003 | 14
humanized #125-1-5 Hu2/Lu5 (antibody, V domains shown, Humanized antibody) VH: QVQLVQSGAEVKKPGASVKVSCKASGYTFTTYVIHWVKQKPGQGLEWIGYINPNNDGTKYNEKFKGRVTITRDTSASTAYMELSSLRSEDTAVYYCARPHFETHAMDYWGQGTLVTVSS VL: DIQMTQSPSSLSASVGDRVTITCKASEDIFNRLAWYQQKPGKAPKLLLYGATSLETGVPSRFSGSGSGTDYTLTISSLQPEDFATYYCQQYWNTWTFGQGTKVEIK | – | – | – | – | – | – | 0.007 | 47.3
humanized #125-1-5 Hu2/Lu6 (antibody, V domains shown, Humanized antibody) VH: QVQLVQSGAEVKKPGASVKVSCKASGYTFTTYVIHWVKQKPGQGLEWIGYINPNNDGTKYNEKFKGRVTITRDTSASTAYMELSSLRSEDTAVYYCARPHFETHAMDYWGQGTLVTVSS VL: DIQMTQSPSSLSASVGDRVTITCKASEDIFNRLAWYQQKPGKAPKLLISGATSLETGVPSRFSGSGSGKDYTLTISSLQPEDFATYYCQQYWNTWTFGQGTKVEIK | – | – | – | – | – | – | 0.018 | 14.1
humanized #125-1-5 Hu3/Lu6 (antibody, V domains shown, Humanized antibody) VH: QVQLVQSGAEVKKPGASVKVSCKASGYTFTTYVIHWVRQAPGQRLEWMGYINPNNDGTKYNEKFKGKATLTSDKSSTTAYMEVRGLTSEDSAVYYCARPHFETHAMDYWGQGTLVTVSS VL: DIQMTQSPSSLSASVGDRVTITCKASEDIFNRLAWYQQKPGKAPKLLISGATSLETGVPSRFSGSGSGKDYTLTISSLQPEDFATYYCQQYWNTWTFGQGTKVEIK | – | – | – | – | – | – | 0.045 | 7.5
humanized #125-1-5 Hu4/Lu5 (antibody, V domains shown, Humanized antibody) VH: QVQLVQSGAEVKKPGASVKMSCKASGYTFTTYVIHWVRQAPGQRLEWIGYINPNNDGTKYNEKFKGRATLTSDKSASTAYMELSSLRSEDTAVYYCARPHFETHAMDYWGQGTLVTVSS VL: DIQMTQSPSSLSASVGDRVTITCKASEDIFNRLAWYQQKPGKAPKLLLYGATSLETGVPSRFSGSGSGTDYTLTISSLQPEDFATYYCQQYWNTWTFGQGTKVEIK | – | – | – | – | – | – | 0.019 | 24.9
humanized #125-1-5 Hu4/Lu6 (antibody, V domains shown, Humanized antibody) VH: QVQLVQSGAEVKKPGASVKMSCKASGYTFTTYVIHWVRQAPGQRLEWIGYINPNNDGTKYNEKFKGRATLTSDKSASTAYMELSSLRSEDTAVYYCARPHFETHAMDYWGQGTLVTVSS VL: DIQMTQSPSSLSASVGDRVTITCKASEDIFNRLAWYQQKPGKAPKLLISGATSLETGVPSRFSGSGSGKDYTLTISSLQPEDFATYYCQQYWNTWTFGQGTKVEIK | – | – | – | – | – | – | 0.022 | 10.3
humanized IgG #125-1-5 Hu3/Lu5 (antibody, V domains shown, also called IgG Hu3/Lu5) VH: QVQLVQSGAEVKKPGASVKVSCKASGYTFTTYVIHWVRQAPGQRLEWMGYINPNNDGTKYNEKFKGKATLTSDKSSTTAYMEVRGLTSEDSAVYYCARPHFETHAMDYWGQGTLVTVSS VL: DIQMTQSPSSLSASVGDRVTITCKASEDIFNRLAWYQQKPGKAPKLLLYGATSLETGVPSRFSGSGSGTDYTLTISSLQPEDFATYYCQQYWNTWTFGQGTKVEIKR | – | – | – | – | – | – | 0.012 | 14
#118-2-5 mouse H4-2/L3-3 (antibody, V domains shown, The label H4-2/L3-3 is not explained) VH: QVQLKQSGPGLVAPSQSLSITCTVSGFSLTSYGVNWIRQPPGKGLEWLGVMWAGGSTNYNSALMSRLSISKDNSKSQVFLKMNSLQTDDTGMYYCARDENWDGAWFAYWGQGTLVTVS VL: DIQMTQSPSSLAVSAGEKVTMSCKSSQSLLNSGTRKNYLAWYQQKPGQSPKLLISWASSRESGVPDRFTGSGSGTDFTLTISSVQAEDLAVYYCKQSYNLFTFGGGTKLELK | no binding | no binding | 28.4 | – | 0.024 | – | – | –
